Measured values: paper PMC4226670, “TAp73 promotes cell survival upon genotoxic stress by inhibiting p53 activity”

Molecular target: T1, GST-TAp73α (UniProt O15350 1-636)
T1 sequence: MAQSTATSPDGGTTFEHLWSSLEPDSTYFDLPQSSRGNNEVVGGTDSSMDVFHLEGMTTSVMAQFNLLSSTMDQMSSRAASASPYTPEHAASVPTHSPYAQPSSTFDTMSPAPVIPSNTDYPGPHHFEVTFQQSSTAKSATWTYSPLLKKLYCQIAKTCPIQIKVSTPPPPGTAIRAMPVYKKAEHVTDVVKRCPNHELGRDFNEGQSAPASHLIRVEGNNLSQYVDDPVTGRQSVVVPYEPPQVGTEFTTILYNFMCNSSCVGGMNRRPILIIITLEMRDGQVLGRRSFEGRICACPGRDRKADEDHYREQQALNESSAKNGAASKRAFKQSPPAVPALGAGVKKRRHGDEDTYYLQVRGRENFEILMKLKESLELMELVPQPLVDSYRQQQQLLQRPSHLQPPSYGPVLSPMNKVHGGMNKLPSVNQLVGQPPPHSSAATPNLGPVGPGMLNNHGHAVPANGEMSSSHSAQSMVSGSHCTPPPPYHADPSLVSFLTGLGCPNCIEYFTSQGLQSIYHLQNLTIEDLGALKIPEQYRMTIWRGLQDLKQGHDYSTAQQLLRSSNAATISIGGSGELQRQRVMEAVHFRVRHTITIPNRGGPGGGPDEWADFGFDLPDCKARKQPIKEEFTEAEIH
Assay: fluorescence polarization; FP: 4 nM FAM duplex, 100 mM NaCl, 10 mM Tris-HCl pH 7.5, 10% glycerol, 5 mM DTT, 0.2 mg/mL BSA, room temperature; pull-down: 2 ug duplex with lysate, 90 min room temperature, then streptavidin beads 2 h 4 C
Details: protein: commercial; tags: GST; chain copies: 4; label: 5' 6-FAM on strand 1; blunt

B1: PUMA promoter duplex, FAM (dsDNA)
DNA 1: CGCGCCTGCAAGTCCTGACTTGTCCGCGGC
DNA 2: GCCGCGGACAAGTCAGGACTTGCAGGCGCG
  Kd: 87.1 nM
